The results in this text go back to patent US20250230248A1 (TAVOTEK BIOTHERAPEUTICS HONG KONG, published 2025).

The target in test [1] is T1, cMET extracellular domain (ECD) (UniProt P08581 25-932, limits assumed).
T1 construct: extracellular domain; Probably the same reagent as recombinant human cMET; also called cMET ECD
Briefly: ELISA on cMET ECD, FIG. 3A. (In general: In an ELISA, binding on a coated surface is turned into a signal by an enzyme label.)

Test [2] addresses T1, cMET extracellular domain (ECD). Briefly: blocking of HGF binding to cMET ECD, ELISA, FIG. 3F.
The target of test [3] is T2, EGFR on HCC827 cells (UniProt P00533 25-1210).
T2 construct: whole, on cells; human tumour cell line; also called EGFR (HCC827)
The experiment in a line: blocking of EGF binding to EGFR on HCC827 cells, FACS, FIG. 8B.

For test [4], the target named is T2, EGFR on HCC827 cells. Briefly: blocking of EGF-EGFR binding, HCC827 cells, gMFI, FIG. 2D.
The target of test [5] is T3, recombinant human EGFR ECD (human, UniProt P00533 25-645).
T3 construct: extracellular domain; also called EGFR extracellular domain (ECD)
Briefly: ELISA on EGFR ECD, FIG. 2A.

T1 sequence (P08581 25-932 limits assumed): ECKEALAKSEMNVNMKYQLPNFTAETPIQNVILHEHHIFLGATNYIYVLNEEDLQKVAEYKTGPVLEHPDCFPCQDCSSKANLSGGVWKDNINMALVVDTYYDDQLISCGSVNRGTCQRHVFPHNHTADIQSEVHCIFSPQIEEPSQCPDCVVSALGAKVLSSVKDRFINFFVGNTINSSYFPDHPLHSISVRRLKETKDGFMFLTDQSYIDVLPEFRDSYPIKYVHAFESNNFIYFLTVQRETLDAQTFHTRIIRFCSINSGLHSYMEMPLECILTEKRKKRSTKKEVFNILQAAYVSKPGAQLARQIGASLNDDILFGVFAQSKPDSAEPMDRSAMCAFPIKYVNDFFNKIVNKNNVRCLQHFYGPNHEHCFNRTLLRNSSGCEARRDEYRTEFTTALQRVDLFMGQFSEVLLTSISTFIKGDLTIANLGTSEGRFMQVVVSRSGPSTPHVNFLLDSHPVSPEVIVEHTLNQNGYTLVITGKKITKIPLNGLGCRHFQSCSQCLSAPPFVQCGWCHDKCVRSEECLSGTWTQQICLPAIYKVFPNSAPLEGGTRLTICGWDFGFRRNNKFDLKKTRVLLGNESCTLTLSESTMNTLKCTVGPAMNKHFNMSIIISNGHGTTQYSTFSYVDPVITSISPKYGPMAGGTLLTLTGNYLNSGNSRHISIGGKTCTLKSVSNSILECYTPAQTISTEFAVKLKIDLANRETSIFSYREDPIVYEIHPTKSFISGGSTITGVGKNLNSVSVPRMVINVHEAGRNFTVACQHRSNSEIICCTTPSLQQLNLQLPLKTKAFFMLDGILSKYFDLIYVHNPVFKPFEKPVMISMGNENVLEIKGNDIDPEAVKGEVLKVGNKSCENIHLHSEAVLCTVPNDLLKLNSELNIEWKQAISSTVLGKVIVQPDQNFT

B1: TV4 (antibody, V domains shown)
VH: QVQLQESGPGLVKPSGTLSLTCAVSGYIFTAYTMHWVRQPPGKGLEWIGGIKPNNGLANYNPSLKSRATLSVDKSKNQASMKLSSVTAADTAVYYCARSEITTEFDYWGQGTLVTVSS
VL: DIQMTQSPSSLSASVGDRVTITCRASESVDSYANSFMHWYQQKPGKAPKLLIYRASNLESGVPSRFSGSGSGTDFTLTISSLQPEDFATYYCQQSKEDPLTFGGGTKVEIK
notes: anti-cMET mAb hit; also called cMET TVH2 / cMET TVL2
As for B1, the EC50 in test [1] is around 0.018 µg/mL; in test [2] it was around 0.108 µg/mL.

B2: 7D VH6×TV4 bispecific antibody (bispecific antibody, not shown: a dimerising Fc or GST)
chain: not shown
VH: B1 VH
VL: B1 VL
notes: also called EGFR×cMet hit; candidate BsAb
For the molecule B2, in the test with EGFR on HCC827 cells [3], the EC50 is around 0.63 nM.

B3: 7D VH4×TV4 bispecific antibody (bispecific antibody, not shown: a dimerising Fc or GST)
chain: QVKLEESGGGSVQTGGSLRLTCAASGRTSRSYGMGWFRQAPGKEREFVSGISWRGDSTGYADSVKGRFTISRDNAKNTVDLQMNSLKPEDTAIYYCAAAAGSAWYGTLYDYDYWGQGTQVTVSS
VH: B1 VH
VL: B1 VL
notes: as for B2
Take B3: the EC50 with EGFR on HCC827 cells [3] is around 0.93 nM.

B4: EV1 (antibody, V domains shown)
VH: QVQLVQSGAEVKKPGASVKVSCKASGYTFTDYYMHWVRQAPGQGLEWMGRVNPNRGGTTYAQKFQGRVTMTTDTSISTAYMELSRLRSDDTAVYYCARANWLDYWGQGTTVTVSS
VL: DIQMTQSPSSLSASVGDRVTITCRVSQSVSSIYLHWYQQKPGKAPKLLIYSTSNLQSGVPSRFSGSGSGTDFTLTISSLQPEDFATYYCQVYSGYPLTFGGGTKVEIK
notes: anti-cMET mAb hit; also called cMET EVH1 / cMET EVL1
For the molecule B4, the results for the EC50 in test [1] and in test [2] were around 0.0175 µg/mL and around 0.093 µg/mL, respectively.

B5: 7D VH6×EV1 bispecific antibody (bispecific antibody, not shown: a dimerising Fc or GST)
chain: not shown
VH: B4 VH
VL: B4 VL
notes: as for B2
B5: the EC50 in the test with EGFR on HCC827 cells [3] was around 0.63 nM.

B6: 7D VH4×EV1 bispecific antibody (bispecific antibody, not shown: a dimerising Fc or GST)
chain: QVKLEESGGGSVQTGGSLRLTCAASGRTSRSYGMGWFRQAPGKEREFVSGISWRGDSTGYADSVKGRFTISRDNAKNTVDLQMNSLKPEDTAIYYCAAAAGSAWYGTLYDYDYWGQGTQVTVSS
VH: B4 VH
VL: B4 VL
notes: as for B2
As for B6, the EC50 with EGFR on HCC827 cells [3] was around 0.81 nM.

B7: Onartuzumab (antibody, V domains shown)
VH: EVQLVESGGGLVQPGGSLRLSCAASGYTFTSYWLHWVRQAPGKGLEWVGMIDPSNSDTRFNPNFKDRFTISADTSKNTAYLQMNSLRAEDTAVYYCATYRSYVTPLDYWGQGTLVTVSS
VL: DIQMTQSPSSLSASVGDRVTITCKSSQSLLYTSSQKNYLAWYQQKPGKAPKLLIYWASTRESGVPSRFSGSGSGTDFTLTISSLQPEDFATYYCQQYYAYPWTFGQGTKVEIK
notes: also called cMET OVH0 / cMET OVL0
In the case of B7, the EC50 was around 0.025 µg/mL in test [1] and around 0.093 µg/mL in test [2].

B8: 7D VH1 (VHH)
VHH: EVQLVESGGGVVRPGGSLRLSCAASGRTSRSYGMGWFRQAPGKEREFVSGISWRGDSTGYADSVKGRFTISRDNAKNSVDLQMNSLRAEDTALYYCAAAAGSAWYGTLYEYDYWGQGTQVTVSS
notes: also called 7D VH hit; EGFR VHO mAb
B8 displayed an EC50 with EGFR on HCC827 cells [4] of around 0.025 µg/mL.

B9: TV1 (antibody, V domains shown)
VH: QVQLVQSGAEVKKPGSSVKVSCKASGYIFTAYTMHWVRQAPGQGLEWMGGIKPNNGLANYAQKFQGRVTITADESTSTAYMELSSLRSEDTAVYYCARSEITTEFDYWGQGTLVTVSS
VL: DIVMTQSPDSLAVSLGERATINCKSSESVDSYANSFLHWYQQKPGQPPKLLIYRASTRESGVPDRFSGSGSGTDFTLTISSLQAEDVAVYYCQQSKEDPLTFGGGTKVEIK
notes: anti-cMET mAb hit; also called cMET TVH1 / cMET TVL0
With B9, the results for the EC50 in test [1] and in test [2] were around 0.0185 µg/mL and around 0.122 µg/mL, respectively.

B10: gp120 mAb (antibody, V domains shown)
VH: QVQLVQSGAEVKKPGASVKVSCQASGYRFSNFVIHWVRQAPGQRFEWMGWINPYNGNKEFSAKFQDRVTFTADTSANTAYMELRSLRSADTAVYYCARVGPYSWDDSPQDNYYMDVWGKGTTVIVSS
VL: EIVLTQSPGTLSLSPGERATFSCRSSHSIRSRRVAWYQHKPGQAPRLVIHGVSNRASGISDRFSGSGSGTDFTLTITRVEPEDFALYYCQVYGASSYTFGQGTKLERK
notes: also called anti-gp120 mAb v12; null control Ab
As to B10, the binding result in test [5] is “no binding”.

The EC50 is the concentration giving half of the maximal effect.
